According to paper PMC4586751:

Legend:
[1] = target: E-cad/α monomer (recombinant; entire E-cadherin cytoplasmic tail fused to αE-catenin) (mouse) (UniProt P09803); test: ITC
[2] = target: E-cadΔ70/α monomer (recombinant; E-cadherin cytoplasmic tail lacking the C-terminal 70 aa fused to αE-catenin) (mouse) (UniProt P09803); test: ITC
[3] = target: F-actin (polymerised chicken muscle G-actin) (chicken) (UniProt P68139); test: co-sedimentation

| Kd [1] | dH [1] | Kd [2] | dH [2] | stoichiometry N [2] | Kd [3] | Substance |
| --- | --- | --- | --- | --- | --- | --- |
| 74 nM | -58 kcal/mol | 36.6 nM | -16.9 kcal/mol | 1 |  | β-catenin (full-length mouse, recombinant) (from UniProt Q02248 1-781) (natural protein) |
|  |  |  |  |  | 1600 nM | E-cadΔ70/α homodimer (recombinant) (from UniProt P09803 736-815) (complex) |
